From patent publication US20240084003A1 (SIMCERE ZAIMING PHARMACEUTICAL, published 2024) come the findings set out here.

Substitutions are numbered along the chain they refer to.

The chains are these.
T1: human CD22-ECD-His protein (human, UniProt P20273 20-687)
T1 construct: Made in house in HEK293E; also called hCD22-ECD-His; recombinant human CD22-ECD His protein; not shown: His tag
T1 sequence: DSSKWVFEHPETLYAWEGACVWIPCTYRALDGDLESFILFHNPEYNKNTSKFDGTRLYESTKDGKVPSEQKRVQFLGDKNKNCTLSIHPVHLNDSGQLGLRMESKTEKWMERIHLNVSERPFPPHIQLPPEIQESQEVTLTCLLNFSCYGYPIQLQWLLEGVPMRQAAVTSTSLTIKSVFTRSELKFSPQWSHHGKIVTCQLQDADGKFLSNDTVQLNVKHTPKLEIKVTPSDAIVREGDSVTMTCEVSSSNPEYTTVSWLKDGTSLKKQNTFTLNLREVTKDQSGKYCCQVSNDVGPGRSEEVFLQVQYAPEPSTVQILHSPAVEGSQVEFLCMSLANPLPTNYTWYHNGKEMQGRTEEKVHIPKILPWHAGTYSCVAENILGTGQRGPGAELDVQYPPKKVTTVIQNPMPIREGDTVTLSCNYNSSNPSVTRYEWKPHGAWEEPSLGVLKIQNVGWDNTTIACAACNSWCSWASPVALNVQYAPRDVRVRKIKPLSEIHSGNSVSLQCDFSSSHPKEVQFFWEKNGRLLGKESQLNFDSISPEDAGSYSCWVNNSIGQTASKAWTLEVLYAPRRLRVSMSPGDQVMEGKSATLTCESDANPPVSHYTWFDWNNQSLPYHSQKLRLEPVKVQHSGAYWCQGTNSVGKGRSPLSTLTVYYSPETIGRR

T2: murine CD22 protein (ACROBiosystems, SI2-M52Ha) (murine, UniProt P35329 22-708)
T2 construct: extracellular domain; also called murine CD22-ECD; murine CD22-ECD-His
T2 sequence (looked up): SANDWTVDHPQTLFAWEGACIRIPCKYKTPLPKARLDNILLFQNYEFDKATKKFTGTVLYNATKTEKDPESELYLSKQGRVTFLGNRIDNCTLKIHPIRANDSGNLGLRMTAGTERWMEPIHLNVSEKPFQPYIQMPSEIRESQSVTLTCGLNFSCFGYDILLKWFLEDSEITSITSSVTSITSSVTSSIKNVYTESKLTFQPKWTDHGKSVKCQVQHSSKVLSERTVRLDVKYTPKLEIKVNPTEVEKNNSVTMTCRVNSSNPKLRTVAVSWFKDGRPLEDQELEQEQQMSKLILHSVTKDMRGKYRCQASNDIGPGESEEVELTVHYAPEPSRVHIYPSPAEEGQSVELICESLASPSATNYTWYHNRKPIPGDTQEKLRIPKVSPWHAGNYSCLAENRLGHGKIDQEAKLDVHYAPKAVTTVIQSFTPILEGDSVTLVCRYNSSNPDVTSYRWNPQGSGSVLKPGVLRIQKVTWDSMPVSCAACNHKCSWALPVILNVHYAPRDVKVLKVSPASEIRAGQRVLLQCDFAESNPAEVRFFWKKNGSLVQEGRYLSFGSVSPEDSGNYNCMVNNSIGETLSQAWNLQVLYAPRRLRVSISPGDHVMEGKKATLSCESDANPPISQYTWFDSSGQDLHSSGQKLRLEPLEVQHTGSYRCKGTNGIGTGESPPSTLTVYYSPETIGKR

T3: human CD22 domain1-4-His (human, UniProt P20273 20-425)
T3 construct: also called hCD22 domain1-4-His; not shown: His tag
T3 sequence: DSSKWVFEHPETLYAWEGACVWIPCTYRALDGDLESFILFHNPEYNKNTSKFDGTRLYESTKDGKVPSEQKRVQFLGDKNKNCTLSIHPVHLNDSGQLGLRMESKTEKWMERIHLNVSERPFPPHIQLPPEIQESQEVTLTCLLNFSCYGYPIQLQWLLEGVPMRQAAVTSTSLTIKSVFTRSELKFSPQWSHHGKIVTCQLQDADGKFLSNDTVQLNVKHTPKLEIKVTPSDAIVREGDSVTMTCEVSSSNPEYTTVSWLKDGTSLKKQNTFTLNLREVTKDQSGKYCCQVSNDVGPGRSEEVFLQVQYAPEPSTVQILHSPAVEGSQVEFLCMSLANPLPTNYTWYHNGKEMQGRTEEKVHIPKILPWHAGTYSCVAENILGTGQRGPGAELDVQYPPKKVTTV

B1: F1.200.11 (antibody, human IgG1, kappa, V domains shown)
VH: QNQLVQSGPELKKPGETVKISCKASGYTFTTAGMQWVQKMPGKGFKWIGWINTLSGEPKYAEDFKGRFAFSLETSATTAYLQISNLKNEDTATYFCARAYYSNLYWYFDVWGTGTTVTVSS
VL: DIVMTQSQKFMSTTVGDRVTITCKASQNVVTAVAWYQQKPGQSPKVLIYSASNRYSGVPDRFTGSGSGTDFTLTISNMHSEDLANYFCHQYSSYPFTFGSGTKLEIKR
notes: Human-murine chimeric IgG1, kappa
B2: F1.216.2 (antibody, human IgG1, kappa, V domains shown)
VH: QVQLQQSGPEVVRPGASVKISCKASGYAFSSSWMNWMKQRPGKALEWIGRIYPGDGDTNYSGEFKVKATLTADKSSSTAYMQLSSLTSEDSAVYFCAREGSYYSNPWYFDYWGQGTTLTVSS
VL: DVLVTQTPLSLPVSLGDQASISCRSSQSIVQSNGDTYLEWYLQKPGQSPKLLIYKVSNRFSGVPDRFSGSGSGTDFTLKISRVEAEDLGVYYCFQGSHVPFTFGSGTKLEIKR
notes: as for B1
B3: F2.205.9 (antibody, human IgG1, lambda, V domains shown)
VH: QVTLKESGPGILQPSQTLSLTCSFSGFSLSTSGMGVGWIRQPSGKGLEWLAHIWWDDDEYYNPALKSRLTISKDTSKNQVFLKIANVDTADTATYYCARISIPYGYYDWFFDVWGTGTTVTVSA
VL: QAVVTQESALTTSPGETVTLTCRSSTGAVTTRNYANWVQEKPDHLFTGLIGGTNNRAPGVPARFSGSLIGDKAALTITGAQTEDEAIYFCALWYSNHFIFGSGTKVTVLG
notes: Human-murine chimeric IgG1, lambda
B4: F1.17.1 (antibody, human IgG1, kappa, V domains shown)
VH: QVQLKESGPGLVAPSQSLSITCTVSGFSLSRYTVHWVRQPPGKGLEWLGMIWGGGSTDYNSALKSRLSISKDNSKSQVFLKMNSLQTDDTAMYYCARPHDFDAGGFAYWGQGTLVTVSA
VL: QIVLTQSPAILSTSPGEKVTMTCSASSRVNYMYWYQQKPGSSPRLLIYDTSNLASGVPVRFSGSGSGTSYSLTISRMEAEDAATYYCQQWTSYPLTFGAGTKLELKR
notes: as for B1
B5: HA22-hIgG1 (antibody, V domains shown)
VH: EVQLVESGGGLVKPGGSLKLSCAASGFAFSIYDMSWVRQTPEKCLEWVAYISSGGGTTYYPDTVKGRFTISRDNAKNTLYLQMSSLKSEDTAMYYCARHSGYGTHWGVLFAYWGQGTLVTVSA
VL: DIQMTQTTSSLSASLGDRVTISCRASQDISNYLNWYQQKPDGTVKLLIYYTSILHSGVPSRFSGSGSGTDYSLTISNLEQEDFATYFCQQGNTLPWTFGCGTKLEIKR
B6: F1.120.15 (antibody, human IgG1, kappa, V domains shown)
VH: QVQLQQSGPELVKPGASVKISCKASGNAFSNSWMNWVKQRPGKGLEWIGRVYSEDGDTQYNGKFRDKATLTADRSTSTAYMQLSSLTSEDSAVYFCARWLIYYGTYGAMDYWGQGTSVTVSS
VL: B5 VL with S30N, Q37H, Y50F, I53R, L54P, H55Y, F83I, C100G
notes: as for B1
B7: F1.105.11 (antibody, human IgG1, kappa, V domains shown)
VH: EVQLQQSGPVLVKPGASVKMSCKASGYTFSDYFMNWVKQSHGKSLEWIGIINSYSGGTSYNQKFKGKATLTVDKSSSTAYMELNSLTSEDSAVYYCARWMDYWGQGTSVTVSS
VL: DVQITQSPSYLAASPGETITINCRTSESISKHLAWYQEKPGKTNKLLIYSGSTLQSGIPSRFSGSGSGTDFTLTISSLEPEDFAMYYCQQHNEYPWTFGGGTKLEIKR
notes: as for B1
B8: F2.55.1 (antibody, human IgG1, lambda, V domains shown)
VH: QVTLKESGPGILQPSQTLSLTCSFSGFSLSTFPLGVGWIRQPSGKGLEWLAHVWWNDDDYYNPALKSRLTISKDTSNTRVFLSVASVDTAETATYYCARLNWDRWYFDVWGTGTTVTVSS
VL: QLVLTQSSSASFSLGASAKLTCTLSSQHSAYTVEWYQQQPLKPPKYVMELKKDGSHSTGDGIPDRFSGSSSGADRYLSISNIQPEDEAIYICGVGDTVKEQFVFGGGTKVTVLG
notes: as for B3
B9: F1.224.1 (antibody, human IgG1, kappa, V domains shown)
VH: EVLLHQSGPELVKPGASVKISCKASGYTFTDFNMDWVRQRHGQSLEWIGDVNPNNGGTIYNQKFKGKATLTVDKSSSTVYMDLRSLTSDDTAVYYCVRLGTSDYGEAWFISWGQGTVVTVSA
VL: DIVLTQSPASLAVSLGQRATISCRASQSVSTPRYSFMHWYQQKPGQPPKLLIKYASNLESGFPARFTGSGSGTDFTLNIHPVEEEDTAAYYCQQSWAIPWTFGGGTKLEIKR
notes: as for B1

One assay has as its target T1, human CD22-ECD-His protein. Briefly: ELISA, Ab 10.00 nM. The method, boiled down:
(§1)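 Plates were coated overnight at 4 °C with human CD22-ECD-His at 2 μg/mL in PBS and blocked with PBS + 2% BSA for 2 h at room temperature. Chimeric antibodies were bound for 2 h at 37 °C, then HRP secondary for 2 h at 37 °C; TMB developed 30 min, stopped with 1.0 N HCl.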
The molecule B1 came in with an OD450 of 2.33 OD450.
Same read-out and setting: the same measure for B2: 2.53 OD450; for B3: 2.11 OD450.
With B4, the OD450 was found to be 2.21 OD450.
On the same count and under the same terms, the same measure for B5: 2.61 OD450; for B6: 2.61 OD450.
Same read-out and setting: the same measure for B7: 2.68 OD450; for B8: 2.16 OD450; for B9: 2.43 OD450.

A further assay deals with T1, human CD22-ECD-His protein. The assay is described as follows: ELISA, Ab 0.10 nM. The method, boiled down:
as §1
On to B1, for which the OD450 turned out to be 2.4 OD450.
As to B2, the OD450 worked out at 2.55 OD450.
On the same count and under the same terms, the same measure for B3: 2.1 OD450.
On the same count and under the same terms, the same measure for B4: 2.41 OD450; for B5: 2.57 OD450.
On the same count and under the same terms, the same measure for B6: 2.63 OD450.
Molecule B7 displayed an OD450 of 2.52 OD450.
B8 yielded an OD450 of 2.03 OD450.
B9 had an OD450 of 2.37 OD450.

Another assay addresses T2, murine CD22 protein (ACROBiosystems, …). The assay is described as follows: ELISA, murine CD22-ECD-His coated. The procedure, abridged: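 Read-out is TMB absorbance after a 30 min room-temperature development stopped with 1.0 N HCl. It reflects chimeric antibody bound to plate-coated CD22 (2 μg/mL), detected with an HRP-labelled secondary antibody. Antibody and secondary incubations each ran 2 h at 37° C.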
For the molecule B1, the binding result was “no binding (tested: 100 nM)”.
The same measure, in the same setting: the same measure for B2: “no binding (tested: 100 nM)”.
Still for that read-out and setting: the same measure for B3: “no binding (tested: 100 nM)”.
As to B4, the binding result is given as “no binding (tested: 100 nM)”.
Same read-out and setting: the same measure for B5: “no binding (tested: 100 nM)”; for B6: “no binding (tested: 100 nM)”; for B7: “no binding (tested: 100 nM)”.
Same read-out and setting: the same measure for B8: “no binding (tested: 100 nM)”; for B9: “no binding (tested: 100 nM)”.

A further assay addresses T1, human CD22-ECD-His protein. Briefly: ELISA, Ab 0.0001 nM. The method, boiled down: as §1
As for B1, the OD450 is 0.51 OD450.
Still for that read-out and setting: the same measure for B2: 0.45 OD450; for B3: 0.24 OD450; for B4: 0.2 OD450.
Still for that read-out and setting: the same measure for B5: 0.33 OD450; for B6: 0.42 OD450; for B7: 0.14 OD450.
Still for that read-out and setting: the same measure for B8: 0.23 OD450; for B9: 0.34 OD450.

The next assay has as its target T3, human CD22 domain1-4-His. The assay is described as follows: ELISA, human CD22 domain1-4-His coated.
On to B1, for which the binding result is “no binding (tested: 100 nM)”.
Consider B2, for which the 50% effective concentration (EC50 (read off the curve)) was roughly 0.02 nM.
Still for that read-out and setting: the same measure for B3: roughly 0.04 nM; for B4: roughly 0.1 nM.
The same measure, in the same setting: the same measure for B5: roughly 0.06 nM; for B6: roughly 0.2 nM.
As for B7, the binding result is “no binding (tested: 100 nM)”.
In the case of B8, the 50% effective concentration (EC50 (read off the curve)) is roughly 0.1 nM.
The same measure, in the same setting: the same measure for B9: roughly 0.03 nM.
